Results reported in patent US20230013244A1 (BioIncept, LLC, priority 2014, published 2023).

How the values were obtained:
[1] = biological target: Acidic leucine-rich nuclear phosphoprotein 32 family member A (human) (UniProt P39687); experiment: PIF affinity column + LC-MS/MS, CD4+ cell lysate
Calreticulin (human) = Calreticulin (human) (UniProt P27797); experiment: PIF affinity column + LC-MS/MS, CD4+ cell lysate
[2] = biological target: Tropomyosin alpha-4 chain (human) (UniProt P67936); experiment: PIF affinity column + LC-MS/MS, CD4+ cell lysate
Tropomyosin alpha-4 chain (human), sequence (P67936 2-248 limits assumed): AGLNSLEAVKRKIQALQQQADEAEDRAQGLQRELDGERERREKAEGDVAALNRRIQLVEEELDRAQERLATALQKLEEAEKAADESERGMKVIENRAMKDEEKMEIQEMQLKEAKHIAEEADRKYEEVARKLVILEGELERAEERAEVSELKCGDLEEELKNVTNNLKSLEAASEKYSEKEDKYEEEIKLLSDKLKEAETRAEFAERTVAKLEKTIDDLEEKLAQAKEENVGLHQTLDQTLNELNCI

[3] = biological target: Serine/arginine-rich-splicing factor 2 (human) (UniProt Q01130); experiment: PIF affinity column + LC-MS/MS, CD4+ cell lysate
[4] = biological target: Glucosidase 2 subunit beta (human) (UniProt P14314); experiment: PIF affinity column + LC-MS/MS, CD4+ cell lysate
Glucosidase 2 subunit beta (human), sequence (P14314 other isoform, or with tags, fused parts or gaps limits assumed): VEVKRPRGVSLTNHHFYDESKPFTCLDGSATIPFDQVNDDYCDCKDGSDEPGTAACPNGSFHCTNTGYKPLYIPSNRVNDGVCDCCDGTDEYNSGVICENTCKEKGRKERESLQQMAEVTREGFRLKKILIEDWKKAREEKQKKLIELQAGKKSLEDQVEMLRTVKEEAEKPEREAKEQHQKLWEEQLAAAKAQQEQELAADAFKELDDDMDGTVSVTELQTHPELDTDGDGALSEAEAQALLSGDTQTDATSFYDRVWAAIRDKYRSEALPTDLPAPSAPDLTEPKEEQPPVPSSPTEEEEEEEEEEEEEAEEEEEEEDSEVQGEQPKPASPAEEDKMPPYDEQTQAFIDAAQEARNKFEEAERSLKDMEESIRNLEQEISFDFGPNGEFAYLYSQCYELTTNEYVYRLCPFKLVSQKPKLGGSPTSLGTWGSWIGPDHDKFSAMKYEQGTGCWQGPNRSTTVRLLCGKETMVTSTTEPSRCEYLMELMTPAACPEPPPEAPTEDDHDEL

Thymosin alpha-1 (human) [5] = biological target: Thymosin alpha-1 (human) (UniProt P06454); experiment: PIF affinity column + LC-MS/MS, CD4+ cell lysate
Thymosin alpha-1 (human), sequence (P06454 other isoform, or with tags, fused parts or gaps limits assumed): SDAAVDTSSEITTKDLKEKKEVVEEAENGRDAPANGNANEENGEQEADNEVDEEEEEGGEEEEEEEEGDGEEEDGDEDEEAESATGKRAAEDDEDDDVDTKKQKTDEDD

Cofilin-1 (human) [6] = biological target: Cofilin-1 (human) (UniProt P23528); experiment: PIF affinity column + LC-MS/MS, CD4+ cell lysate
Cofilin-1 (human), sequence (P23528 2-166 limits assumed): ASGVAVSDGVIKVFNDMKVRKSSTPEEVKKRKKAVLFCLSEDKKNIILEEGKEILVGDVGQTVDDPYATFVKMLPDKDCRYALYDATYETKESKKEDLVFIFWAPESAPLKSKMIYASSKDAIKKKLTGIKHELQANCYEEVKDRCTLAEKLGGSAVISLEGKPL

Serum albumin (human) = Serum albumin (human) (UniProt P02768); experiment: PIF affinity column + LC-MS/MS, CD4+ cell lysate
[7] = biological target: Cartilage oligomeric matrix protein (human) (UniProt P49747); experiment: PIF affinity column + LC-MS/MS, CD4+ cell lysate
Cartilage oligomeric matrix protein (human), sequence (P49747 21-757 limits assumed): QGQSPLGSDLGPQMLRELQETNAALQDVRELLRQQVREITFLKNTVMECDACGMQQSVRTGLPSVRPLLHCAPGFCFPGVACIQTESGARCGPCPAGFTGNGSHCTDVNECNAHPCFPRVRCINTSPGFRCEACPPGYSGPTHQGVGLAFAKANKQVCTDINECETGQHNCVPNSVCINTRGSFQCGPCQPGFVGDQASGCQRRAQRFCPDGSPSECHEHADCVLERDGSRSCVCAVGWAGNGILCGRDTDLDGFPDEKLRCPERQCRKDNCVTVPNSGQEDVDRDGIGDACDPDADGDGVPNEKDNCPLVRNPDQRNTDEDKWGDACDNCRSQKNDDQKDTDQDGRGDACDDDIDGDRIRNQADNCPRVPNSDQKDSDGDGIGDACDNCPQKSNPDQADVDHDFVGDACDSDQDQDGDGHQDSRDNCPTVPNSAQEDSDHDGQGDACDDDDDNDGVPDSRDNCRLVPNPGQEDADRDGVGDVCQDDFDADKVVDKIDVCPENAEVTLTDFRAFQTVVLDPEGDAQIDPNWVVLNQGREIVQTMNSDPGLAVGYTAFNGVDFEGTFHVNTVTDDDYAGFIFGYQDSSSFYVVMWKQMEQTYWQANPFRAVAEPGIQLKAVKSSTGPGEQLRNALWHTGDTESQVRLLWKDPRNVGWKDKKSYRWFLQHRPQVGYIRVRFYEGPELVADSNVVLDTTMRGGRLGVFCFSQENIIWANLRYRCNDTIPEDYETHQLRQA

[8] = biological target: Actin, cytoplasmic 1 (human) (UniProt P60709); experiment: PIF affinity column + LC-MS/MS, CD4+ cell lysate
[9] = biological target: Isoform 2 of Heat shock protein HSP 90-alpha (human) (UniProt P07900); experiment: PIF affinity column + LC-MS/MS, CD4+ cell lysate
[10] = biological target: Isoform 2 of Protein SET (human) (UniProt Q01105); experiment: PIF affinity column + LC-MS/MS, CD4+ cell lysate
[11] = biological target: Hepatoma-derived growth factor (human) (UniProt P51858); experiment: PIF affinity column + LC-MS/MS, CD8+ cell lysate
[12] = biological target: Serine/arginine-rich-splicing factor 1 (human) (UniProt Q07955); experiment: PIF affinity column + LC-MS/MS, CD8+ cell lysate
Nucleolin (human) = Nucleolin (human) (UniProt P19338); experiment: PIF affinity column + LC-MS/MS, CD8+ cell lysate
Nucleolin (human), sequence (P19338 2-710 limits assumed): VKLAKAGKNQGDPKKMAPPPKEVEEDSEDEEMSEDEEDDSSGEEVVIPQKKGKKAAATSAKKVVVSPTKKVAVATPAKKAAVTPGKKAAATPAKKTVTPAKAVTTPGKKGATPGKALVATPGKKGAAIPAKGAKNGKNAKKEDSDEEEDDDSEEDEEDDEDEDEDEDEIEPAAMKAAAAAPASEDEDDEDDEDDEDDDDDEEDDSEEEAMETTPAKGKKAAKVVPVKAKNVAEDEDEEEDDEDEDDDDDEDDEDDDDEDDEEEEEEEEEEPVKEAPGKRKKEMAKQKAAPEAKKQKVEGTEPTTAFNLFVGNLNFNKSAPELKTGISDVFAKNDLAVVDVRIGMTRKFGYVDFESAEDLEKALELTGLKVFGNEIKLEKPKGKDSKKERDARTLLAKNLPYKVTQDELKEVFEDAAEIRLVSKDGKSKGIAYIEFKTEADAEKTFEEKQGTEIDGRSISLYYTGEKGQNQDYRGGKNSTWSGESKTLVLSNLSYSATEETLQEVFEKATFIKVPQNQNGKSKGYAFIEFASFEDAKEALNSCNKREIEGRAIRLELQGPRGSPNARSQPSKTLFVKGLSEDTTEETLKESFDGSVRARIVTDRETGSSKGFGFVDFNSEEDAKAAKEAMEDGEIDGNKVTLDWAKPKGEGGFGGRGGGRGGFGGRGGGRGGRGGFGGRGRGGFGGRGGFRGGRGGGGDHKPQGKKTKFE

Thymosin alpha-1 (human) [13] = biological target: Thymosin alpha-1 (human) (UniProt P06454); experiment: PIF affinity column + LC-MS/MS, CD8+ cell lysate
Cofilin-1 (human) [14] = biological target: Cofilin-1 (human) (UniProt P23528); experiment: PIF affinity column + LC-MS/MS, CD8+ cell lysate
[15] = biological target: Cartilage oligomeric matrix protein (human) (UniProt P49747); experiment: PIF affinity column + LC-MS/MS, CD8+ cell lysate
[16] = biological target: Actin, cytoplasmic 1 (human) (UniProt P60709); experiment: PIF affinity column + LC-MS/MS, CD8+ cell lysate
[17] = biological target: Nuclease-sensitive element-binding protein 1 (Fragment) (human) (UniProt P67809); experiment: PIF affinity column + LC-MS/MS, CD8+ cell lysate
Nuclease-sensitive element-binding protein 1 (Fragment) (human), sequence (P67809 2-324 limits assumed): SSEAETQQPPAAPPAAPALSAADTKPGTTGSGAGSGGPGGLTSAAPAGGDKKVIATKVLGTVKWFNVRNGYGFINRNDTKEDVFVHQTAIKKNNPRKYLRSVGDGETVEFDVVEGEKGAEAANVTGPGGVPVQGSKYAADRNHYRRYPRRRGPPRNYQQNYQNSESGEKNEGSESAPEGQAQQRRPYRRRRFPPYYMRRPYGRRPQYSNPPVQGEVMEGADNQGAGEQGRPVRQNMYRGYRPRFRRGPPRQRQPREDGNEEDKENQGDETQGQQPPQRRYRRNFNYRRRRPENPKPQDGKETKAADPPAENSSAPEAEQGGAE

[18] = biological target: Isoform 2 of Protein SET (human) (UniProt Q01105); experiment: PIF affinity column + LC-MS/MS, CD8+ cell lysate
[19] = biological target: Tubulin alpha-1C chain (human) (UniProt Q9BQE3); experiment: PIF affinity column + LC-MS/MS, CD8+ cell lysate
Endoplasmin (human) = Endoplasmin (human) (UniProt P14625); experiment: PIF affinity column + LC-MS/MS, CD14+ cell lysate
Endoplasmin (human), sequence (P14625 22-803 limits assumed): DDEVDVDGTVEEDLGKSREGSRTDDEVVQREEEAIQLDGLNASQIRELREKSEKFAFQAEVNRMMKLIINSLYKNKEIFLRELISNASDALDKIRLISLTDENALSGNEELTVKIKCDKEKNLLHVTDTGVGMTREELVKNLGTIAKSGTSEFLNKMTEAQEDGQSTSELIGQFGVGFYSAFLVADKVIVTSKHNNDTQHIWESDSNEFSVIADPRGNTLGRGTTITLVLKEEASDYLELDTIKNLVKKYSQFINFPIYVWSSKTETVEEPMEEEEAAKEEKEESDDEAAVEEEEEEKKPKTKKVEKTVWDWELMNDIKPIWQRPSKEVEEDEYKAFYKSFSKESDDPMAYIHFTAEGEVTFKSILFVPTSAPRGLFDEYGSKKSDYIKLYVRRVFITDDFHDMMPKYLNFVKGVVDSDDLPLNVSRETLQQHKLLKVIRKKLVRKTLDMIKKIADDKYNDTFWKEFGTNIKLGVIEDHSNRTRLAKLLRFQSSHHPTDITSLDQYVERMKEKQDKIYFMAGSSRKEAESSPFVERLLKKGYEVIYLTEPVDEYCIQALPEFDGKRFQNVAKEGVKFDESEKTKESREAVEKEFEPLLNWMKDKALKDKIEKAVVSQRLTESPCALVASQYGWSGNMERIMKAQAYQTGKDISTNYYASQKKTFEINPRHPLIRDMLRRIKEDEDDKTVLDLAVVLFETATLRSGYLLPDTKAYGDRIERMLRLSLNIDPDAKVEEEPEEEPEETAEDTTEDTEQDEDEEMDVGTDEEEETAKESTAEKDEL

[20] = biological target: 14-3-3 protein zeta/delta (human) (UniProt P63104); experiment: PIF affinity column + LC-MS/MS, CD14+ cell lysate
14-3-3 protein zeta/delta (human), sequence (P63104 whole entry, stated change not applied): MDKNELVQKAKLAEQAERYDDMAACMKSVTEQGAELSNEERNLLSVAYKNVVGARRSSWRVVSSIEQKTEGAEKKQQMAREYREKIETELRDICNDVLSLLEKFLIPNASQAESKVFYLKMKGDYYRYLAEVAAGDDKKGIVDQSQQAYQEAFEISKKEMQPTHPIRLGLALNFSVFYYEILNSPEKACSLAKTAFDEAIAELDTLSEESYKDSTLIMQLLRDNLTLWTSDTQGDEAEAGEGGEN

Thrombospondin-1 (human) = Thrombospondin-1 (human) (UniProt P07996); experiment: PIF affinity column + LC-MS/MS, CD14+ cell lysate
[21] = biological target: Isoform 2 of Heat shock protein HSP 90-alpha (human) (UniProt P07900); experiment: PIF affinity column + LC-MS/MS, CD14+ cell lysate
Tropomodulin-3 (human) = Tropomodulin-3 (human) (UniProt Q9NYL9); experiment: PIF affinity column + LC-MS/MS, CD14+ cell lysate
Tropomodulin-3 (human), sequence (Q9NYL9 whole entry): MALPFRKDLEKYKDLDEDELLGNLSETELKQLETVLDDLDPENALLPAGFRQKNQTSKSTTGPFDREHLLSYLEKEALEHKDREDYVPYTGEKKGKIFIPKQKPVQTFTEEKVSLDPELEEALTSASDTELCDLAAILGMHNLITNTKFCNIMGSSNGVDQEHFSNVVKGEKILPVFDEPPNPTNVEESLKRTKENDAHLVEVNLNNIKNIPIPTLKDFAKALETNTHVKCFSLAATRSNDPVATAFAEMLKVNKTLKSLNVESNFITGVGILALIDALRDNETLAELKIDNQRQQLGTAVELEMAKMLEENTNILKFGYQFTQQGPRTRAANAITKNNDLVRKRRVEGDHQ

Calreticulin (human), sequence (P27797 18-417 limits assumed): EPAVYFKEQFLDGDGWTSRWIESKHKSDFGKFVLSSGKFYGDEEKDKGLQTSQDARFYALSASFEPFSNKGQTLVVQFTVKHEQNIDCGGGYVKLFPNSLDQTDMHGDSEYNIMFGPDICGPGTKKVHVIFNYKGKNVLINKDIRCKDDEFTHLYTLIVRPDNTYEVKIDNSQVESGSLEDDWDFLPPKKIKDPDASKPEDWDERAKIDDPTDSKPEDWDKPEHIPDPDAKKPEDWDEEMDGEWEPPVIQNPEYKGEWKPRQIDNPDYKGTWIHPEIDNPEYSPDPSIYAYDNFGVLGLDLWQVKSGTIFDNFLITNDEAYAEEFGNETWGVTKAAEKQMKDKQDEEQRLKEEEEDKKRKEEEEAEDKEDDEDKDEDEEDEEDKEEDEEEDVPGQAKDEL
Acidic leucine-rich nuclear phosphoprotein 32 family member A (human), sequence (P39687 whole entry): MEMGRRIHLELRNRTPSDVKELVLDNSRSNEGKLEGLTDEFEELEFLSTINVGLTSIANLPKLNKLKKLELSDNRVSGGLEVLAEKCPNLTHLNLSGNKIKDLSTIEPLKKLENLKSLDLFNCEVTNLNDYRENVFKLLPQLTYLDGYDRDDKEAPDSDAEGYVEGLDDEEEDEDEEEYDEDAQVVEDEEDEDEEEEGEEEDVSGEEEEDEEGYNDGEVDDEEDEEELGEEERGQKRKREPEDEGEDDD

“PIF-resin (PIF15 affinity ligand on agarose) (peptide)” was tested, and the Ave [1] was 1, the Inject 1 [1] was 1 and the Inject 2 [1] was 1. The Inject 3 [1] was 1, the Ave (Calreticulin (human)) was 4 and the Inject 1 (Calreticulin (human)) was 4. It also gave an Inject 2 (Calreticulin (human)) of 4, an Inject 3 (Calreticulin (human)) of 4 and an Ave [2] of 4. It also gave an Inject 1 [2] of 4, an Inject 2 [2] of 4 and an Inject 3 [2] of 4. It also gave an Inject 1 [3] of 1, an Ave [4] of 1 and an Inject 1 [4] of 1. The Inject 2 [4] was 1, the Inject 3 [4] was 1 and the Ave (Thymosin alpha-1 (human) [5]) was 5. For the same substance, the Inject 1 (Thymosin alpha-1 (human) [5]) was 4, the Inject 2 (Thymosin alpha-1 (human) [5]) was 5 and the Ave (Cofilin-1 (human) [6]) was 1. It also gave an Inject 1 (Cofilin-1 (human) [6]) of 1, an Inject 2 (Cofilin-1 (human) [6]) of 1 and an Inject 3 (Cofilin-1 (human) [6]) of 1. For the same substance, the Ave (Serum albumin (human)) was 8, the Inject 1 (Serum albumin (human)) was 4 and the Inject 3 (Serum albumin (human)) was 12. The Ave [7] was 10, the Inject 1 [7] was 10 and the Inject 2 [7] was 10. It also gave an Inject 3 [7] of 11, an Ave [8] of 2 and an Inject 1 [8] of 2. For the same substance, the Inject 2 [8] was 2, the Inject 3 [8] was 2 and the Ave [9] was 4. It also gave an Inject 1 [9] of 4, an Inject 2 [9] of 4 and an Inject 3 [9] of 4. The Ave [10] was 4, the Inject 2 [10] was 4 and the Inject 3 [10] was 4. For the same substance, the Ave [11] was 1, the Inject 1 [11] was 1 and the Inject 2 [11] was 1. The Inject 3 [11] was 1, the Ave [12] was 1 and the Inject 1 [12] was 1. It also gave an Inject 2 [12] of 1, an Inject 3 [12] of 1 and an Ave (Nucleolin (human)) of 1. For the same substance, the Inject 1 (Nucleolin (human)) was 1, the Inject 2 (Nucleolin (human)) was 1 and the Inject 3 (Nucleolin (human)) was 1. For the same substance, the Inject 3 (Thymosin alpha-1 (human) [13]) was 4, the Ave (Cofilin-1 (human) [14]) was 1 and the Inject 1 (Cofilin-1 (human) [14]) was 1. The Inject 2 (Cofilin-1 (human) [14]) was 1, the Inject 3 (Cofilin-1 (human) [14]) was 1 and the Ave [15] was 4. For the same substance, the Inject 1 [15] was 4, the Inject 2 [15] was 4 and the Inject 3 [15] was 5. It also gave an Ave [16] of 3, an Inject 1 [16] of 3 and an Inject 2 [16] of 3. The Inject 3 [16] was 3, the Ave [17] was 1 and the Inject 1 [17] was 1. For the same substance, the Inject 2 [17] was 1, the Inject 3 [17] was 1 and the Ave [18] was 1. For the same substance, the Inject 1 [18] was 1, the Inject 2 [18] was 1 and the Inject 3 [18] was 1. For the same substance, the Ave [19] was 1, the Inject 1 [19] was 1 and the Inject 2 [19] was 1. The Inject 3 [19] was 1, the Ave (Endoplasmin (human)) was 1 and the Inject 1 (Endoplasmin (human)) was 0. For the same substance, the Inject 3 (Endoplasmin (human)) was 1, the Ave [20] was 4 and the Inject 1 [20] was 4. The Inject 3 [20] was 4, the Inject 2 (Thrombospondin-1 (human)) was 5 and the Inject 3 (Thrombospondin-1 (human)) was 8. The Ave [21] was 1, the Inject 1 [21] was 1 and the Inject 3 [21] was 1. It also gave an Ave (Tropomodulin-3 (human)) of 1, an Inject 1 (Tropomodulin-3 (human)) of 1 and an Inject 3 (Tropomodulin-3 (human)) of 1.
